Results taken from the supplement of paper PMC10065799, “High-throughput profiling of sequence recognition by tyrosine kinases and SH2 domains using bacterial peptide display” (eLife, 2023).

Assays:
AncSZ = experiment: phosphorylation enrichment, bacterial display (enrichment ratio); higher = better substrate or ligand; peptides without Tyr show the background
EPHB1 = EPHB1 (UniProt P54762); experiment: as above
EPHB2 = EPHB2 (UniProt P29323); experiment: as above
FGFR1 = FGFR1 (UniProt P11362); experiment: as above
FGFR3 = FGFR3 (UniProt P22607); experiment: as above
Fer (mouse) = experiment: as above
Fes = Fes (UniProt P07332); experiment: as above
Fyn = Fyn (UniProt P06241); experiment: as above
Hck = Hck (UniProt P08631); experiment: as above
Jak2 = Jak2 (UniProt O60674); experiment: as above
MERTK = MERTK (UniProt Q12866); experiment: as above
c-Abl (mouse) = experiment: as above
c-Src = experiment: as above
Grb2 SH2 = Grb2 SH2 (UniProt P62993); experiment: SH2 binding enrichment of the phosphorylated peptide, bacterial display (enrichment ratio); higher = better substrate or ligand; peptides without Tyr show the background
SHP2-C SH2 = experiment: as above
c-Src SH2 = experiment: as above
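Wherever SH2 binding enrichment of the phosphorylated peptide, bacterial display is given: peptide library displayed on the E. coli surface as eCPX fusions, selected cells deep-sequenced, score is each peptide's frequency after selection divided by its frequency in the input.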
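Wherever phosphorylation enrichment, bacterial display is given: 11-residue human phosphosite peptides and single-mutation variants displayed on the E. coli surface, counted by deep sequencing, each peptide's frequency after selection divided by its frequency in the unselected input library; frequency after pTyr selection over input frequency; kinase dosed for 20-30% of maximal phosphorylation in three min.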

EPHB2, sequence (P29323 whole entry, looked up): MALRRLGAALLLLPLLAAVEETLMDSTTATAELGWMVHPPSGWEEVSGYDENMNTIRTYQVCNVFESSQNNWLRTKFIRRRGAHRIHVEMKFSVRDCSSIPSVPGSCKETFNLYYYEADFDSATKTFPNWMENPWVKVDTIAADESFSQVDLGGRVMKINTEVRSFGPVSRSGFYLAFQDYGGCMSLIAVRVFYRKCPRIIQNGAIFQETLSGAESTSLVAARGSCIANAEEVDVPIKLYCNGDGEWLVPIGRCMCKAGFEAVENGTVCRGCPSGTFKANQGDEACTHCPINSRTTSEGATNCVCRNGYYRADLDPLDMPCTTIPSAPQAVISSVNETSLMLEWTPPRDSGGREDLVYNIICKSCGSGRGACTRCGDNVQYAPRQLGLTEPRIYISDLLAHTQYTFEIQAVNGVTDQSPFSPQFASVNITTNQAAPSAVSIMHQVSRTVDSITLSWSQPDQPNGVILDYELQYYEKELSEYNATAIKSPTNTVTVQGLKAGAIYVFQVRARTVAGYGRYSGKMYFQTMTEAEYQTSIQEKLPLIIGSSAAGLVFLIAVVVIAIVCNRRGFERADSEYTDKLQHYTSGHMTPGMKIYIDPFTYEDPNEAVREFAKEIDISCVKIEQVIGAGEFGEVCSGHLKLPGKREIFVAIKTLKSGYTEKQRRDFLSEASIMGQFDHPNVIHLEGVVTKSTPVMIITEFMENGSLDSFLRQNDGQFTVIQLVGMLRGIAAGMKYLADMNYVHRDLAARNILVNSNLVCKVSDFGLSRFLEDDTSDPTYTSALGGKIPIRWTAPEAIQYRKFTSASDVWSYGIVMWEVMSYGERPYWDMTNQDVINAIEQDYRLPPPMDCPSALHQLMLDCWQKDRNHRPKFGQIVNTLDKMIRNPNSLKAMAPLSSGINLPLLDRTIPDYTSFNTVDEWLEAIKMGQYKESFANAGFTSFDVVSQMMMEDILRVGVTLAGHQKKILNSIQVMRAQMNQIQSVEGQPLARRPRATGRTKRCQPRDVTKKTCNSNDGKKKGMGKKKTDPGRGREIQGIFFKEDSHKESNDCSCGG
FGFR1, sequence (P11362 whole entry, looked up): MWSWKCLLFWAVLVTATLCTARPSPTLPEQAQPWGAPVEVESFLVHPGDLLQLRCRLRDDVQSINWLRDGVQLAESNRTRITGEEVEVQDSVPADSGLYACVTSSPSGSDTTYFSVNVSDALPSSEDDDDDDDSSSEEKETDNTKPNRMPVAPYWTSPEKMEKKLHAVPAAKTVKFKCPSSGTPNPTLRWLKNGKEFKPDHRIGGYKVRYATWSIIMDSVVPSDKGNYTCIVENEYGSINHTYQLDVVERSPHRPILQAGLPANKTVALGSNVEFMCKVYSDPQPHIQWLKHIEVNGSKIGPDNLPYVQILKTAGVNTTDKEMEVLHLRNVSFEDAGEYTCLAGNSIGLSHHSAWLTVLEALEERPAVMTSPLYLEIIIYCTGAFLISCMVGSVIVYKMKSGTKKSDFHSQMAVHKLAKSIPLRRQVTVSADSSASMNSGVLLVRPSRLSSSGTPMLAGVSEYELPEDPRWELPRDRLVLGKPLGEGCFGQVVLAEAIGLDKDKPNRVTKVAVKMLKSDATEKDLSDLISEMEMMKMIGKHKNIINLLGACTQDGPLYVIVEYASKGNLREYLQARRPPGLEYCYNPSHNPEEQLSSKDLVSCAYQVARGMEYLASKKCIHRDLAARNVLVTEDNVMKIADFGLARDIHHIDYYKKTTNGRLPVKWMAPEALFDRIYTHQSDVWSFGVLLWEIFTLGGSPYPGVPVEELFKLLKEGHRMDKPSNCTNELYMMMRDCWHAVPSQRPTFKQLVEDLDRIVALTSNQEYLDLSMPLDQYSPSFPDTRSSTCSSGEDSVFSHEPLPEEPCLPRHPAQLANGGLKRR
Fyn, sequence (P06241 whole entry, looked up): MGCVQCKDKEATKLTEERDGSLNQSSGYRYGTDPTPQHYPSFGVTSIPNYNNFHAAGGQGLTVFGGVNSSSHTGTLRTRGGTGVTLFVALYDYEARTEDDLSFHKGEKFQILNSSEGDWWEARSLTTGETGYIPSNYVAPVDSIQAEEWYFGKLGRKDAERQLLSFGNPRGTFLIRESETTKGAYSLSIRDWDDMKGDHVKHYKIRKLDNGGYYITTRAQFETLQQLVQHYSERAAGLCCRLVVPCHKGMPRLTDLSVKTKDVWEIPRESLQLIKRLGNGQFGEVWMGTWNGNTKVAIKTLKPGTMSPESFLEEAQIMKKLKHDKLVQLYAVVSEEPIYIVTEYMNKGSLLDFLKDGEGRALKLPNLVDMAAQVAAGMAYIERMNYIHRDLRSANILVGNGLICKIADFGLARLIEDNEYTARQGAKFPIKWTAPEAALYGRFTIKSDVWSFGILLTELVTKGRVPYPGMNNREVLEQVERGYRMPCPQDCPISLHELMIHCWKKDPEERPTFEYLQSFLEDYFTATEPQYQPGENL
MERTK, sequence (Q12866 whole entry, looked up): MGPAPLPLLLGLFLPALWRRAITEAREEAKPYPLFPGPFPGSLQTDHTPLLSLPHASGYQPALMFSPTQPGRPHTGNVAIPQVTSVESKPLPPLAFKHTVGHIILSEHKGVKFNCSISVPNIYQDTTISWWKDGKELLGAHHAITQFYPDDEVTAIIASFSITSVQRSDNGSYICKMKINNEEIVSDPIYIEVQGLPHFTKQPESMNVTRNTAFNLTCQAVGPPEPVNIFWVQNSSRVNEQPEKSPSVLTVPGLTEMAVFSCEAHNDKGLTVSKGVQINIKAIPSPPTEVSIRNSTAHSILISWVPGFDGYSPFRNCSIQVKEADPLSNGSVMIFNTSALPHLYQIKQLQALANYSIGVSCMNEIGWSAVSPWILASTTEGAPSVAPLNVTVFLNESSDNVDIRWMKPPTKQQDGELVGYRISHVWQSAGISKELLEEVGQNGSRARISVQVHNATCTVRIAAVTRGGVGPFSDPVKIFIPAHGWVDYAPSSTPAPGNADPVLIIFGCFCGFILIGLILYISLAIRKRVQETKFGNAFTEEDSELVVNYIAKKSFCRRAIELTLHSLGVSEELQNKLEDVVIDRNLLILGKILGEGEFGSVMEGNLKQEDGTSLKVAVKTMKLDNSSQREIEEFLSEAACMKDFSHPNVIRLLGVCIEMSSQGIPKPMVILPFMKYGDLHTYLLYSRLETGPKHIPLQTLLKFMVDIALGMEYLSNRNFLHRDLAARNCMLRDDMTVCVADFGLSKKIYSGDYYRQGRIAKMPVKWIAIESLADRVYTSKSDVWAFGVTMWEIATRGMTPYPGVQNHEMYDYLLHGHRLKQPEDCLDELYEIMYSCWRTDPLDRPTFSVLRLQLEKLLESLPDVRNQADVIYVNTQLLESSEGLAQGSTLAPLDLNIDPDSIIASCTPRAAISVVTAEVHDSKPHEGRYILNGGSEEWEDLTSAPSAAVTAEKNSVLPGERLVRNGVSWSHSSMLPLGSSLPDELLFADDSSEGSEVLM
Fes, sequence (P07332 whole entry, looked up): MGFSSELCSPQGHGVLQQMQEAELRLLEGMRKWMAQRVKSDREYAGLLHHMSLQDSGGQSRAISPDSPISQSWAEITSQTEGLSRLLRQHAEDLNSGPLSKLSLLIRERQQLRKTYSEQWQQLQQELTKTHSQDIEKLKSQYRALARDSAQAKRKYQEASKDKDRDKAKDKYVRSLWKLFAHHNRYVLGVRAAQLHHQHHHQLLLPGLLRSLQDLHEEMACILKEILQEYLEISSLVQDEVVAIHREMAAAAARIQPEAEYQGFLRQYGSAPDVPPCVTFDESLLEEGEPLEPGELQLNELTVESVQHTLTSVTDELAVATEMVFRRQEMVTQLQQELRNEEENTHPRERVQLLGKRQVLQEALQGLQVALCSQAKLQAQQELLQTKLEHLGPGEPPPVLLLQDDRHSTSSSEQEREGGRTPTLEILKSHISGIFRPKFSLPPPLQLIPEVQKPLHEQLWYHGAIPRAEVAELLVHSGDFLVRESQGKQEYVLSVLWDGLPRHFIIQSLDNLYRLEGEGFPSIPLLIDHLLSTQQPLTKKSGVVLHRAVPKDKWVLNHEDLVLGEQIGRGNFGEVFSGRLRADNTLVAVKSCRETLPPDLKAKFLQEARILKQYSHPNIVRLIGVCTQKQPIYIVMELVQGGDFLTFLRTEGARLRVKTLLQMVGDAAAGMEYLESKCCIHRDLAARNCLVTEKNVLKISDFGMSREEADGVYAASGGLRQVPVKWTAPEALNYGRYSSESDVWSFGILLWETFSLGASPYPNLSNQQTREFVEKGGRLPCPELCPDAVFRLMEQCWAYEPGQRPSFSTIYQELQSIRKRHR
FGFR3, sequence (P22607 whole entry, looked up): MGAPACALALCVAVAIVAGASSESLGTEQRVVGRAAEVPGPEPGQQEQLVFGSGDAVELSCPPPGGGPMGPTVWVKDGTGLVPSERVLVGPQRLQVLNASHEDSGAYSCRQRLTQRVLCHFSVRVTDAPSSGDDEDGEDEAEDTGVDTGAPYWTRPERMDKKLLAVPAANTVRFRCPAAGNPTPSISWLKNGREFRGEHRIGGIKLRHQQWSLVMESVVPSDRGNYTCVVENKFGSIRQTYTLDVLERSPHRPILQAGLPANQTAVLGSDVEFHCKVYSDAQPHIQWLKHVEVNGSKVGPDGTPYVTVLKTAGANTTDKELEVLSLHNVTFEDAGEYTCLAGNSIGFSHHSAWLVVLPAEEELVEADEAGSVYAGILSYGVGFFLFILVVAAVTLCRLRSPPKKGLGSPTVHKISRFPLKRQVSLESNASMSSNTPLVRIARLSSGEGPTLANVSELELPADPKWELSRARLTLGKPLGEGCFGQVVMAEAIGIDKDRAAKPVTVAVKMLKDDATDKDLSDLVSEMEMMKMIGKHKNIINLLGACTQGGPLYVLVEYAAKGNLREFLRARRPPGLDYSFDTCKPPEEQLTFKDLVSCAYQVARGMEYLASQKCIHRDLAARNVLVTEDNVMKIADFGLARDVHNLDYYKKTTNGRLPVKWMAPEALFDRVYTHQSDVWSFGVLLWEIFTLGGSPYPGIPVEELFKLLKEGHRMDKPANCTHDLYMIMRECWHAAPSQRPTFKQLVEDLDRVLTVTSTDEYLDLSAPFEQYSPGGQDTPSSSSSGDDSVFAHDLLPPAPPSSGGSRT

Row | Sequence | SH2 binding enrichment (Grb2 SH2) | SH2 binding enrichment (SHP2-C SH2) | SH2 binding enrichment (c-Src SH2) | phosphorylation enrichment (AncSZ) | phosphorylation enrichment (EPHB1) | phosphorylation enrichment (EPHB2) | phosphorylation enrichment (FGFR1) | phosphorylation enrichment (FGFR3) | phosphorylation enrichment (Fer (mouse)) | phosphorylation enrichment (Fes) | phosphorylation enrichment (Fyn) | phosphorylation enrichment (Hck) | phosphorylation enrichment (Jak2) | phosphorylation enrichment (MERTK) | phosphorylation enrichment (c-Abl (mouse)) | phosphorylation enrichment (c-Src)
1 | LPEENYQVLCF [ARHGAP1_Y365_R369C] | 0.739 | 0.49 | 0.82 | 3.61 | 9.13 | 5.96 | 8.04 | 5.59 | 7.5 | 3.56 | 1.64 | 4.43 | 5.17 | 3.58 | 3.14 | 5.73
2 | LPKEQYLCTKE [AFG3L2_Y614_Y616C] | 0.883 | 0.533 | 0.584 | 0.858 | 0.463 | 0.428 | 0.482 | 0.653 | 0.562 | 1.01 | 0.466 | 0.409 | 0.868 | 0.409 | 0.723 | 0.427
3 | LQLLGHRPVFS [CHST6_Y358_Y358H_YF] | 0.912 | 0.923 | 0.544 | 0.901 | 0.847 | 0.783 | 0.657 | 0.785 | 0.817 | 1.33 | 0.786 | 0.957 | 1.03 | 0.602 | 0.919 | 0.579
4 | LRAGVYREKDQ [DNM2_Y626_P627R] | 0.646 | 0.478 | 0.427 | 0.882 | 0.392 | 0.295 | 0.335 | 0.524 | 0.349 | 0.636 | 0.35 | 0.449 | 0.38 | 0.398 | 0.514 | 0.448
5 | LRVHSYKSMQP [DRC7_Y516] | 1.25 | 0.957 | 0.607 | 0.797 | 0.526 | 0.515 | 0.479 | 0.671 | 0.565 | 0.769 | 0.567 | 0.684 | 0.476 | 0.423 | 0.785 | 0.55
6 | LTELGYSFVTT [ACTA1_Y200_R198L] | 0.797 | 3.2 | 8.8 | 3.14 | 1.44 | 1.46 | 5.04 | 3.42 | 2.05 | 3.61 | 1.88 | 1.9 | 1.93 | 1.12 | 1.51 | 1.11
7 | LTTEAYEWEPC [ELMOD3_Y61_R66C] | 1.02 | 0.959 | 1.37 | 5.1 | 3.5 | 2.44 | 2.04 | 3.7 | 2.88 | 6.22 | 1.58 | 1.88 | 6.69 | 1.57 | 4.16 | 5.66
8 | LVRAFYCERRR [CARD11_Y970] | 0.383 | 0.449 | 0.243 | 0.684 | 0.62 | 1.71 | 0.766 | 0.585 | 0.624 | 0.713 | 0.844 | 1.14 | 0.705 | 0.902 | 0.597 | 0.988

Now from value to sequence, other results behind:

Row | SH2 binding enrichment (Grb2 SH2) | SH2 binding enrichment (SHP2-C SH2) | SH2 binding enrichment (c-Src SH2) | Sequence | phosphorylation enrichment (AncSZ) | phosphorylation enrichment (EPHB1) | phosphorylation enrichment (EPHB2) | phosphorylation enrichment (FGFR1) | phosphorylation enrichment (FGFR3) | phosphorylation enrichment (Fer (mouse)) | phosphorylation enrichment (Fes) | phosphorylation enrichment (Fyn) | phosphorylation enrichment (Hck) | phosphorylation enrichment (Jak2) | phosphorylation enrichment (MERTK) | phosphorylation enrichment (c-Abl (mouse)) | phosphorylation enrichment (c-Src)
9 | 0.76 | 0.784 | 1.58 | LQFKNYQQLFD [MAN2A1_Y442] | 0.944 | 0.641 | 0.532 | 0.453 | 0.679 | 0.391 | 0.985 | 0.379 | 0.527 | 0.882 | 0.358 | 0.636 | 0.377
10 | 0.64 | 1.1 | 0.78 | LQRCKYSHMEP [TEX45_Y434] | 1.21 | 0.513 | 0.876 | 0.663 | 0.957 | 0.582 | 1.35 | 0.375 | 0.672 | 1.5 | 0.614 | 1.16 | 0.982
11 | 1.44 | 1.03 | 1.05 | LRSELYFLIAR [PHIP_Y16] | 2.02 | 1.54 | 1.4 | 3.06 | 3.17 | 0.916 | 1.71 | 0.769 | 1.93 | 3.62 | 7.59 | 1.63 | 1.5
12 | 1.15 | 1.05 | 1.89 | LRSELYSLIAR [PHIP_Y16_F17S] | 0.919 | 5.23 | 1.36 | 0.693 | 0.811 | 4.78 | 1.11 | 1.63 | 7.53 | 0.54 | 11 | 0.566 | 2.26
13 | 1.02 | 0.665 | 0.5 | LSAPEYGPKLK [TBC1D14_Y46] | 0.592 | 0.539 | 0.425 | 0.58 | 0.565 | 0.458 | 0.514 | 0.451 | 0.537 | 0.409 | 0.383 | 0.456 | 0.412
14 | 0.934 | 0.783 | 0.671 | LSFSEYASVQV [SIRPA_Y496_P491L] | 2.44 | 7.83 | 8.7 | 2.22 | 2.1 | 5.53 | 1.64 | 3.8 | 2.93 | 1.1 | 0.671 | 4.03 | 2.14
15 | 0.761 | 0.498 | 0.397 | LTDLRYKVSGL | 0.581 | 0.379 | 0.479 | 0.496 | 0.437 | 0.404 | 0.725 | 0.352 | 0.377 | 0.575 | 0.427 | 0.565 | 0.46
16 | 0.847 | 5.82 | 4.06 | LTGIAYSLPHW [SLC22A14_Y291] | 1.61 | 0.969 | 0.94 | 0.658 | 0.956 | 0.877 | 1.68 | 0.921 | 1.08 | 0.997 | 3.24 | 1.41 | 0.764
17 | 1.04 | 0.722 | 0.541 | LTNDRYLATLT [IL6ST_Y396] | 0.761 | 0.625 | 0.709 | 0.676 | 0.586 | 0.568 | 1.07 | 0.746 | 0.463 | 0.97 | 0.597 | 1.58 | 0.533
